According to the supplement of paper PMC7125110:
± gives the standard error. For some assays here: Variants at the floor of the assay were thinned out.

B1: glmS ribozyme (parent)
chain: AUAAAAGCGCCAGAACUACAGAAAUGUAGUUGACGAGGAGGAGGUUUAUCGAAUUUUCGGCGGAUGCCUCCAAA

Key:
Conditions in all cases: with glucosamine-6-phosphate
glucosamine-6-phosphate [1] = variants of: B1; experiment: self-cleavage kobs at 40 uM GlcN6P; higher = faster cleavage; RNA array
Summary of the method: (§1)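 Tiles bearing barcoded ribozyme variants, transcribed in situ by E. coli RNA polymerase on sequenced MiSeq chips, were imaged over ~14 h at 37 °C using a hybridised Cy3 probe. Glucosamine-6-phosphate was supplied at 40 μM to 10 mM in HEPES/KCl/Mg(OAc)2 buffer. kobs came from one- or two-exponential decay fits to normalised per-tile medians, and weighted Michaelis–Menten fits then provided kcat and KM.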

glucosamine-6-phosphate [2] = variants of: B1; experiment: self-cleavage kobs at 640 uM GlcN6P; higher = faster cleavage; RNA array
Summary of the method: as §1

glucosamine-6-phosphate [3] = variants of: B1; experiment: self-cleavage kobs at 10000 uM GlcN6P; higher = faster cleavage; RNA array
Summary of the method: as §1

glucosamine-6-phosphate [4] = variants of: B1; experiment: kcat; higher = faster cleavage; RNA array
Summary of the method: as §1

glucosamine-6-phosphate [5] = variants of: B1; experiment: KM; higher = weaker cofactor use; RNA array
Summary of the method: as §1

glucosamine-6-phosphate [6] = variants of: B1; experiment: self-cleavage kobs at 2500 uM GlcN6P; higher = faster cleavage; RNA array
Summary of the method: as §1

glucosamine-6-phosphate [7] = variants of: B1; experiment: self-cleavage kobs at 160 uM GlcN6P; higher = faster cleavage; RNA array
Summary of the method: as §1

Variant | self-cleavage kobs at 40 uM GlcN6P (glucosamine-6-phosphate [1]) [s⁻¹] | self-cleavage kobs at 640 uM GlcN6P (glucosamine-6-phosphate [2]) [s⁻¹] | self-cleavage kobs at 10000 uM GlcN6P (glucosamine-6-phosphate [3]) [s⁻¹] | kcat (glucosamine-6-phosphate [4]) [s⁻¹] | KM (glucosamine-6-phosphate [5]) [µM] | self-cleavage kobs at 2500 uM GlcN6P (glucosamine-6-phosphate [6]) [s⁻¹] | self-cleavage kobs at 160 uM GlcN6P (glucosamine-6-phosphate [7]) [s⁻¹]
G13C C34A | < 1e-05 | < 1e-05 | < 1e-05 |  |  |  | 
G41U A42U C70A | 0.000142 ± 2.3e-05 |  | 0.00204 ± 0.00044 |  |  |  | 
G40A G41U |  | 2.54e-05 ± 8.5e-06 | 6.43e-05 ± 1.3e-05 | 7.26e-05 ± 2.3e-06 | 1160 ± 110 | 5.29e-05 ± 1.9e-05 | 
C8U G59A | < 1e-05 | < 1e-05 | < 1e-05 |  |  |  | < 1e-05
A12C A15G | 0.000302 ± 3.5e-05 | 0.00332 ± 0.0006 | 0.0142 ± 0.0018 | 0.016 ± 0.0031 | 2400 ± 600 | 0.00626 ± 0.0015 | 0.000883 ± 0.00014
G41C G43A C50G C67A U69C | < 1e-05 |  |  |  |  |  | 
A15U G38U U55C | < 1e-05 |  |  |  |  |  | 
A12C C50G | 5.75e-05 ± 1.5e-05 | 5.32e-05 ± 1.5e-05 |  |  |  | 8.38e-05 ± 1.9e-05 | 0.000244 ± 8.9e-05
C16A U45G |  | 6.15e-05 ± 1.2e-05 | 0.000222 ± 2.7e-05 | 0.000271 ± 2.9e-06 | 2200 ± 54 | 0.000144 ± 3.4e-05 | 
A15U U30C G51C | < 1e-05 |  |  |  |  |  | 
G41A A53U | 5.42e-05 ± 9e-06 | 0.000358 ± 5.8e-05 | 0.000656 ± 0.0001 | 0.000693 ± 8.4e-05 | 562 ± 120 | 0.00063 ± 0.00014 | 0.00012 ± 3.1e-05
A39U U56C | 3.9e-05 ± 8.2e-06 | 0.000351 ± 5.4e-05 | 0.00192 ± 0.0004 | 0.00176 ± 0.00058 | 2130 ± 950 | 0.000804 ± 0.00019 | 0.000149 ± 2.8e-05
G32U C68U | < 1e-05 | 2.88e-05 ± 8.9e-06 | 9.76e-05 ± 6.8e-06 | 0.000114 ± 5.5e-06 | 1540 ± 250 | 7.28e-05 ± 6.1e-06 | 
A12G A52U | < 1e-05 | < 1e-05 |  | < 1e-05 |  |  | 
A15U G43U U54C G60C C70G | < 1e-05 |  | < 1e-05 |  |  |  | 
A14G A15U G37A | 4.55e-05 ± 1.5e-05 |  | 0.00249 ± 0.00037 |  |  |  | 
A53C G63U C67G U69G | < 1e-05 |  |  |  |  |  | 
A6U G43A U45G U57A G59U | < 1e-05 |  | < 1e-05 |  |  |  | 
U45G U56G | 8.78e-05 ± 1.3e-05 | 0.0011 ± 0.00017 | 0.00403 ± 0.00047 | 0.00528 ± 0.00075 | 2490 ± 520 | 0.0033 ± 0.00052 | 0.000245 ± 6.5e-05
A14C U65G |  | 0.000206 ± 5.5e-05 | 0.00117 ± 0.00024 | 0.00175 ± 0.00025 | 4500 ± 1000 | 0.000717 ± 0.00019 | 
C8G U31C A39G | < 1e-05 |  |  |  |  |  | 
U30A U49G C70U |  |  | 8.4e-05 ± 2e-05 | 0.000102 ± 2.6e-05 |  |  | 

Variant | self-cleavage kobs at 40 uM GlcN6P (glucosamine-6-phosphate [1]) [s⁻¹] | self-cleavage kobs at 640 uM GlcN6P (glucosamine-6-phosphate [2]) [s⁻¹] | self-cleavage kobs at 10000 uM GlcN6P (glucosamine-6-phosphate [3]) [s⁻¹] | kcat (glucosamine-6-phosphate [4]) [s⁻¹] | KM (glucosamine-6-phosphate [5]) [µM] | self-cleavage kobs at 2500 uM GlcN6P (glucosamine-6-phosphate [6]) [s⁻¹] | self-cleavage kobs at 160 uM GlcN6P (glucosamine-6-phosphate [7]) [s⁻¹]
G40A U47A A53U | 6.84e-05 ± 2.5e-05 |  |  |  |  | 0.000618 ± 0.00018 | 
A6U U30C U56C | < 1e-05 |  |  |  |  |  | 
A39G G44C |  | 0.000101 ± 1.9e-05 | 0.000394 ± 4.8e-05 | 0.000507 ± 6.5e-05 | 2450 ± 660 | 0.000327 ± 6.4e-05 | 
G38U A39G |  |  |  |  | 2660 ± 1000 |  | 
A36G U57A | < 1e-05 | < 1e-05 | < 1e-05 |  |  | < 1e-05 | < 1e-05
C16A G37U G43U U57C | < 1e-05 | < 1e-05 | < 1e-05 |  |  |  | 
G13U G60U C68U | < 1e-05 |  |  |  |  |  | 
C10A C16G U31G G38A C61U | < 1e-05 |  | < 1e-05 |  |  |  | 
A6C G37A G41A A42U | < 1e-05 |  | < 1e-05 |  |  |  | 
G37C A52U A53U | < 1e-05 |  |  |  |  |  | 
G13C A39G A64U | < 1e-05 |  |  |  |  | < 1e-05 | 
C10G A12U U30G | < 1e-05 |  |  |  |  |  | 
A52G | 3.36e-05 ± 1e-06 | 0.000385 ± 9.1e-06 | 0.0022 ± 6.2e-05 | 0.00319 ± 0.00046 | 4410 ± 790 | 0.00127 ± 5.6e-05 | 0.000104 ± 3.3e-06
G29C C50G C61A U65C | 7.48e-05 ± 2.1e-05 |  |  |  |  |  | 
C8A G35C C67A | < 1e-05 | < 1e-05 |  |  |  |  | < 1e-05
G51A C61G | < 1e-05 |  |  |  |  |  | < 1e-05
A12U U30C C68A | < 1e-05 |  |  |  |  |  | 
A48U C50U A52C G63C C71U | < 1e-05 |  |  |  |  |  | 
A33U C50U | < 1e-05 |  | < 1e-05 | < 1e-05 |  | < 1e-05 | < 1e-05
A48G G59A |  |  |  | 5.08e-05 ± 1.8e-05 |  | 6.29e-05 ± 1.8e-05 | 
C8A G13A | < 1e-05 | < 1e-05 | < 1e-05 |  |  | < 1e-05 | < 1e-05
G51A U57G | < 1e-05 |  |  |  |  | < 1e-05 | < 1e-05
